The term IC50 denotes the midpoint of a concentration-inhibition curve. A lower IC50 goes with inhibition by little substance.

Experimental findings from US20170157188A1 are described below.

Assay [1] addresses cell-surface mouse PD-1 on EL4 and RMA T lymphoma cells (mouse) (UniProt Q02242). The assay can be described thus: flow cytometry competition on EL4 cells against mPD-L1-hFc at 2 µg/ml. Background: In flow cytometry, cells or beads pass a laser one at a time.
Assay [2] deals with mouse PD-1 (coated in the competition ELISA) (mouse) (UniProt Q02242). Put plainly: competition ELISA, blocks mouse PD-L1 biot on coated mouse PD-1; dimeric fraction more efficient than monomeric. On the technique in general: In an ELISA, binding on a coated surface is turned into a signal by an enzyme label.

For the molecule “commercially available anti-mPD-1 antibody J43 (BioXCell)”, in assay [1], the IC50 came to 1.6 µg/mL.

B1: WRTG18616-encoded anti-mPD-1 scFv, dimeric fraction (scFv, part only; not given: glycine-serine linker, V domains shown)
VH: EVRLLESGGGLVKPEGSLKLSCVASGFTFSDYFMSWVRQAPGKGLEWVAHIYTKSYNYATYYSGSVKGRFTISRDDSRSMVYLQMNNLRTEDTATYYCTRDGSGYPSLDFWGQGTQVTVSS
VL: YELTQPPSASVNVGETVKITCSGDQLPKYFADWFHQRSDQTILQVIYDDNKRPSGIPERISGSSSGTTATLTIRDVRAEDEGDYYCFSGYVDSDSKLYVFGSGTQLTVLHHHHHH
modifications: Dimer of two identical scFv polypeptides (first gel-filtration peak); one copy is given. VH and VL are joined in the real chain by a Gly-Ser linker of undisclosed letters and are given here as two chains.
B1 gave a difference in EC50 against the monomeric scFv in assay [2] of 1 log.
